The target in experiment [1] is T1, integrin αIIbβ3 (glycoprotein IIbIIIa) bearing HPA-1a (Leu33) on intact HPA-1a-positive platelets (human, UniProt P08514 32-1039; P05106 27-788).
T1 construct: whole, on cells; HPA-1ab platelets carry both allotypes; results on them are marked in the row; also called HPA-1aa platelets; HPA-1a homozygous platelets
Description: MAIPA inhibition assay on HPA-1aa platelets; blocked antibodies: polyclonal anti-HPA-1a IgG of 10 donor sera.

Experiment [2] has as its target T2, GPVI (hDID2) negative control peptide (UniProt Q9HCN6 21-205).
T2 construct: domain: hDID2; also called peptide negative control
T2 sequence (looked up): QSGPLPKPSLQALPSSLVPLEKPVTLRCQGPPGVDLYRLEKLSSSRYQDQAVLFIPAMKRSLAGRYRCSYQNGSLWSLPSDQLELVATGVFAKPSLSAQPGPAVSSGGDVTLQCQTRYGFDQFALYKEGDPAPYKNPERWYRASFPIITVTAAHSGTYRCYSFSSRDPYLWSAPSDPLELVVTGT
As to the kind of experiment: domain-deletion peptide ELISA. On the technique in general: ELISA stands for enzyme-linked immunosorbent assay.
Description: Murine and human mAbs were used at concentrations of 1 and 10 μg/ml. MAb binding was detected by HRP-conjugated goat-anti-mouse IgG or HRP-conjugated goat-anti-human IgG. Absorbance at 492 nm was read on an microplate photometer (Multiskan E X, Thermo Scientific, Waltham, Mass.).

Experiment [3] addresses T3, purified integrin αIIbβ3 from HPA-1aa platelets (HPA-1a antigen carrying version) (human, UniProt P08514 32-1039; P05106 27-788).
T3 construct: mature; Amine-coupled to a CM5 chip at 400 RU for SPR; also called αIIbβ3 (HPA-1a); αIIbβ3 from HPA-1aa individuals
Description: SPR (Biacore T200), integrin amine-coupled to CM5 chip, antibody injected 120 s. (Surface plasmon resonance follows binding to a sensor surface in real time, without labels.)
Description: (§1) The percentage of antibody bound at the end of the dissociation phase was calculated by dividing the RU at the end of dissociation period by the RU at the end of association period multiplied by 100%. Data presented are average percentage calculated from three different concentrations for each mAb.
(§2) SPR technology was used to assess the binding properties of the mAbs (Biacore T200 instrument, Biacore AB, Uppsala, Sweden). […] The purified βllbβ3 integrins (HPA-1a and HPA-1b antigen carrying versions) and αVβ3 were immobilized to the surface of a CM5 sensor chip on three different flow cells (FCs) at a density of 400, 340 and 480 response units (RU) respectively using standard amine coupling chemistry. An FC treated with the same chemicals but without protein was used as a reference surface. Purified monoclonal IgG samples (various concentrations) were injected over the chip surface at a flow rate of 30 μl/min. An association step of 120 sec was followed by a dissociation step of 120 sec. Regeneration of the sensor chip surface was accomplished using 10 mM Glycine-HCl (pH 1.5). The experiments were performed at 25° C. The collected data were analysed using BiaEvaluation 2.0.1 software. […] All chemicals for the Biacore experiment were purchased from GE Healthcare.

Experiment [4] has as its target T4, integrin αVβ3 (vitronectin receptor) purified from human placenta (human, UniProt P06756 31-1048; P05106 27-788).
T4 construct: mature; Amine-coupled to a CM5 chip at 480 RU for SPR; also called purified αVβ3; Millipore CC1018
The description is as above.
Description: as §1, §2

The target of experiment [5] is T3, purified integrin αIIbβ3 from HPA-1aa …. Description: SPR (Biacore T200), integrin amine-coupled to CM5 chip, after 120 s dissociation.
Description: (§3) MAb samples were used in three different concentrations (20 μg/ml, 10 μg/ml and 5 μg/ml); the highest concentration is shown. Results are representative of the two independent experiments. […] Data presented are average RU generated by injection of three different concentrations of mAbs (20 μg/ml, 10 μg/ml and 5 g/ml). […] The percentage of antibody bound at the end of the dissociation phase was calculated by dividing the RU at the end of dissociation period by the RU at the end of association period multiplied by 100%. Data presented are average percentage calculated from three different concentrations for each mAb.
(§4) SPR technology was used to assess the binding properties of the mAbs (Biacore T200 instrument, Biacore AB, Uppsala, Sweden). […] The integrin αVβ3 was obtained from Millipore (cat. No: CC1018). The integrin αVβ3 was purified from human placenta by affinity chromatography using immobilized monoclonal antibodies to αVβ3 integrin. […] The purified βllbβ3 integrins (HPA-1a and HPA-1b antigen carrying versions) and αVβ3 were immobilized to the surface of a CM5 sensor chip on three different flow cells (FCs) at a density of 400, 340 and 480 response units (RU) respectively using standard amine coupling chemistry.
The target in experiment [6] is T4, integrin αVβ3 (vitronectin receptor) …. Described as above.
Description: as §3, §4
Experiment [7] has as its target T3, purified integrin αIIbβ3 from HPA-1aa …. As to the kind of experiment: SPR, 120 s dissociation, average of three concentrations.
Description: as §3, §4
In experiment [8] the target is T4, integrin αVβ3 (vitronectin receptor) …. The description is as above.
Description: as §3, §4
In experiment [9] the target is T2, GPVI (hDID2) negative control peptide. Description: domain-deletion peptide ELISA. The source holds these as a separate data set.

The values that follow come from patent publication US20210189005A1 (RALLYBIO IPA, published 2021).

Where two headings read alike, the source gives them in different places.

T4 sequence (P06756 31-1048, form in doubt, chain 1 of 2): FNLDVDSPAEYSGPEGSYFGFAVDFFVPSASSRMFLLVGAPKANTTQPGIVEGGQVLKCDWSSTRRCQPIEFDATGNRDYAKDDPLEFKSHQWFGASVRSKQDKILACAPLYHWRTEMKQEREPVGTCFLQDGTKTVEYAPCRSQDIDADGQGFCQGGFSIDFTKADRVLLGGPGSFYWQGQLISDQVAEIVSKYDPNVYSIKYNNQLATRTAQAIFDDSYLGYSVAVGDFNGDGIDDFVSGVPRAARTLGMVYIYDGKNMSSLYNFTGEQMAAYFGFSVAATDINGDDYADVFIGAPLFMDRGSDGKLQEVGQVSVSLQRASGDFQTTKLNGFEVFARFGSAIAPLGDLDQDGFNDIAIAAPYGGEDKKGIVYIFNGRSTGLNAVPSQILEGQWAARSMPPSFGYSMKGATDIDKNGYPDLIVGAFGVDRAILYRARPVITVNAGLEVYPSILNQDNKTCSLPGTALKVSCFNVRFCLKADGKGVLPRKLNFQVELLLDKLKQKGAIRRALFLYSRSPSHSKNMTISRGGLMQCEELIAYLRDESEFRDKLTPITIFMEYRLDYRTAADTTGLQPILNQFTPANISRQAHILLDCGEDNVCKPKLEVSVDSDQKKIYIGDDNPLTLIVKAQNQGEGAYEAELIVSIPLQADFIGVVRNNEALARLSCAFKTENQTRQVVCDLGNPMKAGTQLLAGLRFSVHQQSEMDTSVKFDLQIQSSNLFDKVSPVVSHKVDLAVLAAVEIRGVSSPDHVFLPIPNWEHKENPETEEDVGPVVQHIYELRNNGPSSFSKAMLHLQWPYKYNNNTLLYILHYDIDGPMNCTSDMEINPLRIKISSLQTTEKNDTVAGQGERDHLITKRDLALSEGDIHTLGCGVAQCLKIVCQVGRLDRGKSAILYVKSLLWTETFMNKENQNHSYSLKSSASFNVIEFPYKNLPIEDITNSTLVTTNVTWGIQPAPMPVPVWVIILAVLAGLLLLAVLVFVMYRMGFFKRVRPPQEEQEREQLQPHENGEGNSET
T4 sequence (P05106 27-788, form in doubt, chain 2 of 2): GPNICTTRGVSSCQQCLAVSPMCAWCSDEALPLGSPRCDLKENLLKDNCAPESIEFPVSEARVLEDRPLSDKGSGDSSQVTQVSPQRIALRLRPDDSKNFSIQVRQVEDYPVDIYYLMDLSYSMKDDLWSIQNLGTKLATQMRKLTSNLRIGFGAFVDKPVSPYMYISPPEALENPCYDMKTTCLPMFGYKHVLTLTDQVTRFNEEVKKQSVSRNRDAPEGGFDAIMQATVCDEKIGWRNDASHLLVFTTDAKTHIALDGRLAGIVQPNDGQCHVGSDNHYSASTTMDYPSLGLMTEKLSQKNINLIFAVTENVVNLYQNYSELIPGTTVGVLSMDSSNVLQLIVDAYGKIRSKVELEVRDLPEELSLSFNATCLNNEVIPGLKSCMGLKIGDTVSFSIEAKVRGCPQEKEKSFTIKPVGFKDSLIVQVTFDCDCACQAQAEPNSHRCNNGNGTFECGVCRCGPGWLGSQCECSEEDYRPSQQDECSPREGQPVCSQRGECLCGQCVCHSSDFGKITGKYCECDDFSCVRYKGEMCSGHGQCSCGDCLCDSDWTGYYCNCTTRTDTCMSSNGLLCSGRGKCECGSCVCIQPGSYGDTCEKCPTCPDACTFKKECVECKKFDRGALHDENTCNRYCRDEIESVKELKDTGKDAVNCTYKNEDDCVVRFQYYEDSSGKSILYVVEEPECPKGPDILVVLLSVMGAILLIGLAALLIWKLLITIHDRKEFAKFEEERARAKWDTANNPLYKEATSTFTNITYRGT
T3 sequence (P08514 32-1039, form in doubt, chain 1 of 2): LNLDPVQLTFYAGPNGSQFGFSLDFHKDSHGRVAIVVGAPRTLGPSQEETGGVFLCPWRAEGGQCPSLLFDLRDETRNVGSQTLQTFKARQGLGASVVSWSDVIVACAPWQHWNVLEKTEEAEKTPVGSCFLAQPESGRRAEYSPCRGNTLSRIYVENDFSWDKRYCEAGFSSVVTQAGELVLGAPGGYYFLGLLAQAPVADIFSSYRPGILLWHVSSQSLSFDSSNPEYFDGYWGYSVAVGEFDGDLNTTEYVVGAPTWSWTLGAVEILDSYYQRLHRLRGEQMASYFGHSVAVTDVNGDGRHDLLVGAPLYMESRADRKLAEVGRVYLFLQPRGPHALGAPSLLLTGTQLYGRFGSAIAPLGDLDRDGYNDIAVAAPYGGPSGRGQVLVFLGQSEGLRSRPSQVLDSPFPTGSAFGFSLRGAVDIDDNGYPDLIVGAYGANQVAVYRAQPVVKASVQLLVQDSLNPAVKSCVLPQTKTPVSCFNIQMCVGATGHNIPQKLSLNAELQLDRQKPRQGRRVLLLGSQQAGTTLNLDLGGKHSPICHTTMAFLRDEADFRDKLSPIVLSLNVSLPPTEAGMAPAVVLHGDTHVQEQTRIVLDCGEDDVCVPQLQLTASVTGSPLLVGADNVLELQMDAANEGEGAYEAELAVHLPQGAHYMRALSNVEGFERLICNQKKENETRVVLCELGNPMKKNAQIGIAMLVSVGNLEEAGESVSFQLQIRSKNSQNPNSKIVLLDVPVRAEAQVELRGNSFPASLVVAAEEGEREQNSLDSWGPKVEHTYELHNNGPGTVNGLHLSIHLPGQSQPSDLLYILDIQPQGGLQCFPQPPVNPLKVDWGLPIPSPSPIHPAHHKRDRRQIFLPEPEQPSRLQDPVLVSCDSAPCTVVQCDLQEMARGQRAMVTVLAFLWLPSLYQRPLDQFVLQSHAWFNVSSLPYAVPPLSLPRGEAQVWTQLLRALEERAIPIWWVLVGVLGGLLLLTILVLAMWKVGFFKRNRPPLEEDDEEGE
T3 sequence (P05106 27-788, form in doubt, chain 2 of 2): as the sequence (P05106 27-788, form in doubt, chain 2 of 2) above
T1 sequence (P08514 32-1039, chain 1 of 2): as the sequence (P08514 32-1039, form in doubt, chain 1 of 2) above
T1 sequence (P05106 27-788, chain 2 of 2): as the sequence (P05106 27-788, form in doubt, chain 2 of 2) above

B1: mAb 26.4 F(ab')2 fragment (other)
VH: QVQLQQSGPGLVKPSQTLSLTCAISGDSVSSNSAAWNWIRQSPSRGLEWLGRTYFRSNWYNDYAASVKSRITINQDTSKNQLSLQLNSVTPEDTAMYYCARDGAWGGSSWWPGLPHHYYSGMDVWGQGTTVTVSS
VL: EIVLTQSPATLSLSPGERATLSCRASQSVSSYLAWYQQKPGQAPRLLIYDASKRATGIPARFSGSGSGTDFSLTIRSLEPEDFAVYYCQQRSDWQGLTFGGGTKVEIK
For B1, the “IC50 (read off the curve)” value in experiment [1] is ~5 µg/50 µl.

B2: recombinant monoclonal antibody 26.4 IgG1 (antibody)
heavy: not shown
light: EIVLTQSPATLSLSPGERATLSCRASQSVSSYLAWYQQKPGQAPRLLIYDASKRATGIPARFSGSGSGTDFSLTIRSLEPEDFAVYYCQQRSDWQGLTFGGGTKVEIKRTVAAPSVFIFPPSDEQLKSGTASVVCLLNNFYPREAKVQWKVDNALQSGNSQESVTEQDSKDSTYSLSSTLTLSKADYEKHKVYACEVTHQGLSSPVTKSFNRGEC
notes: also called 26.4G1
For the molecule B2, the binding result in [2] was “no binding (tested: 10 µg/ml)”. Moreover, the “bound (RU)” value in experiment [3] came out at 63.1 RU; in experiment [4], 18.8 RU. The “% dissociated” value in experiment [5] is 21.4%; in experiment [6], 35.1%. The “bound after dissociation (RU)” value was found to be 49.6 RU in experiment [5] and 12.2 RU in [6]. Besides, the “% remaining bound at the end of the dissociation period” value was ~81% in experiment [7] and 66.8% in experiment [8].

B3: human HPA-1a-specific recombinant monoclonal antibody B2G1 (antibody, V domains shown)
VH: QVQLVQSGAEVKRPGAAVKVSCKASGYRFTGHYMHWVRQAPGQGLEWMGWINPNSGGTSYAQKFQGRVTMTRDTSISTAYMEMTRLRYDDTAVYYCAAGGLGGYYYYAMNIWGQGTTVTVSS
VL: QSALTQPASVSGSPGQSITISCTGTSSDVGGYNYVSWYQQHPGKAPKLMIYEVSNRPSGVSNRFSGSKSGNTASLTISGLQAEDEADYYCSSYTSSSTWVFGGGTKLTVL
notes: Generated by phage display and produced recombinantly as a human IgG detected by anti-human IgG; also called clone B2G1
Take B3: the binding result in [2] is “no binding (tested: 10 µg/ml)”. Further, the “bound (RU)” value in experiment [3] came to 56.1 RU; in experiment [4], 11.2 RU. Also, the “% dissociated” value in experiment [5] amounted to 22%; in experiment [6], 70.5%. The “bound after dissociation (RU)” value in experiment [5] was determined as 43.8 RU; in [6], 3.3 RU. Further, the “% remaining bound at the end of the dissociation period” value in experiment [7] was ~81%; in experiment [8], 31.4%.

B4: mouse monoclonal antibody SZ21 (antibody, V domains shown)
VH: LQESGPELVNPGASMKISCKASGYSFTGYTMNWVKQSHGKNLEWIGLINPYHGGSSYNQKFKGKATLTVDKSSSTAYMELLSLTSEDSAVYFCARRDANYVFFFDYWGQGTTVT
VL: ELTQSPALMSASPGEKVTMTCSASSGVSYIHWYQQKSGTSPKRWIYDTSKLASGVPARFSGSGSGTSYSLTISSMEAEDAATYYCQQWSSKPPTFGGGTKLE
notes: Bought murine mAb; variable regions as in Genebank AF354053 and AF354054 (the printed entries look truncated at both ends); also called clone SZ21; anti-β3 mAb (clone SZ21)
B4: the binding result in experiment [9] is “no binding (tested: 10 µg/ml)”.
